Data on one substance can be found in PMC4369429.

The target in this experiment is Steroid receptor coactivator 3 (SRC-3), recombinant, wild type (UniProt Q9Y6Q9). In words: cryo-EM structure.
UniProt Q9Y6Q9, sequence (Q9Y6Q9 whole entry): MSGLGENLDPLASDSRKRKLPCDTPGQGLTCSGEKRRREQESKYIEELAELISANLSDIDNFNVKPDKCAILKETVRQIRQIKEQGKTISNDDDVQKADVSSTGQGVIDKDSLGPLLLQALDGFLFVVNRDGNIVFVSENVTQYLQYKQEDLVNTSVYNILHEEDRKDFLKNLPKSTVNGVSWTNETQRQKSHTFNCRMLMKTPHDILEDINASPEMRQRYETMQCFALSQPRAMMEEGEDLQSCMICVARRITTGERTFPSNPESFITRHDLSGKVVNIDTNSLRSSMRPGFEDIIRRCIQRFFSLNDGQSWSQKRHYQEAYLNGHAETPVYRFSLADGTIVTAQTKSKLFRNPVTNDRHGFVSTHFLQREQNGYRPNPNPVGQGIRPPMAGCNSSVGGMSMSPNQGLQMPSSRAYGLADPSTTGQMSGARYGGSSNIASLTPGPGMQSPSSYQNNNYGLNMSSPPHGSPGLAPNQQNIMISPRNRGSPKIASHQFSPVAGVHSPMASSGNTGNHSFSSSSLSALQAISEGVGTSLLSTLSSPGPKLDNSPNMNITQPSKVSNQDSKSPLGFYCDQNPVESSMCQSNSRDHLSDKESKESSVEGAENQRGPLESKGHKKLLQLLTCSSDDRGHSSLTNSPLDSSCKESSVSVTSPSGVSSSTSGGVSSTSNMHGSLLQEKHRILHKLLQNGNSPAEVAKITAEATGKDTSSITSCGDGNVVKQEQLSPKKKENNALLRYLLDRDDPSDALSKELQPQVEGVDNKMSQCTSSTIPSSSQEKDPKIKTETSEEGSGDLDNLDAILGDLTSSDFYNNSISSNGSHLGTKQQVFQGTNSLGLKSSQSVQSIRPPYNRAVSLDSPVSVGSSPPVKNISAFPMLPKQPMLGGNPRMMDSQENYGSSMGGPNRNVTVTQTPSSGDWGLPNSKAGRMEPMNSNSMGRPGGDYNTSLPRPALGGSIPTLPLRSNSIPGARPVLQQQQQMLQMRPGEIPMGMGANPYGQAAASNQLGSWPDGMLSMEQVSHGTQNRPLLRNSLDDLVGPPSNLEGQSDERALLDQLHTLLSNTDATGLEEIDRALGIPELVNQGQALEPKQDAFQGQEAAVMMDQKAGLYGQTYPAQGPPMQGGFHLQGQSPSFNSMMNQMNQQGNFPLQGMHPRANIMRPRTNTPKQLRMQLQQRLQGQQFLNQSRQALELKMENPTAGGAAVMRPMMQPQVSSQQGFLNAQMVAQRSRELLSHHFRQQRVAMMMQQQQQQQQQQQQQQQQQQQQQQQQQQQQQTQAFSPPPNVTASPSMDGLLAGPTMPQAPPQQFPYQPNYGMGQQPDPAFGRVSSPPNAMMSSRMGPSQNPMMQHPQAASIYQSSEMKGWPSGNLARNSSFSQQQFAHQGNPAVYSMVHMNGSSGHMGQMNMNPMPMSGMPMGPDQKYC

On to p300, recombinant, Q09472 1-2414, for which the stoichiometry N (p300 molecule per two SRC-3) was determined as 1.
